From the DeepSol protein solubility set come the findings set out here.

The data set in a line: soluble on expression in E. coli; label from the status in PepcDB or PDB records.
In the case of “MRLPALFLAHGSPMLAIEDNAYTAFLGKLGEGIRPQAVVIFTAHWMTRQPTVSAVEGTYDMIYDFSGFPRELYEVVYLARGSVEWAERVRERLAGVAEVAVDSTRGLDHGSWVLLHRLFPNADIPVVQASVLPWWTPKQLFQLGEALRPLRDEGLMVIGSGGTVHNLMALRWEGHAEADAWAMAFDDWLLSRSAAHSEEVFDYENKAPYAKQAVPTPEHLAPYWIAYGAGDRDQAPRVLFREYQYGSLSLMAVTF”, the “soluble on expression in E. coli” value is recorded as “not soluble”.
The same measure for “MRLTGKQTWVFQNDIYVNATGTAVGPKEAEGPLGKKFDISYGDLHCGEENWELAERRLMSDSIQQAVQKGNIKTSQIDFFLAGDLLNQTVTANYVARKWGIPFLGMFSACATSMETLAVGSAFIDGGFANRVLATVSSHNATAERQFRYPTEYGGQKPGTANSTVTGAGSILISNEKSAIKITSATIGKVQDLGITNPLDMGAAMAPAAAHTIQQHFEDLRRSADDYDLIVTGDLSAVGTPIAKQLLLEEGYDLGHIYNDCGLMIYESSQEEVFAGGSGCACSAVVTYGHLLHEMQKGNLQRIFVVATGALLSPMMMQQKETIPTIAHGVVFERVKGELEHHHHHH”: “soluble”; for “MRMFSVQPIAFVHNERKEIKDDEWGEVRSRITLTEMYAEKSIQGIEDFSHIEVVFYFHKVTDEQIQYFARHPRNNKDYPEVGIFAQRGKNRPNRIGVTIVKVIKREGKSIIVEGLDAIDGTPILDIKPIMKEFMPTEEIHQPKWATDIMRQYWKGNVVKLEHHHHHH”: “soluble”; for “MRMKKLTTLISAALLSTSVSFVAQAQDTVAIVLSTLNNPFFVTMKDGAEAKAKELGYNLIVLDSQNDPSKELSNVEDLTVRGVKAILINPTDSDAVSNAIRIANRSKIPVLTLDRGASRGEVVSHIASDNVVGGEMAGHFIEAKIGSDAKVIQLEGIAGTSAARERGEGFMNAVKGSKMQLLASQPADFDRTKGLNVMENLLAANPDVQAVFAQNDEMALGALRAIQASGKSVMIVGFDGTDDGIAAVERGQLAATVAQQPDMIGAIGIETADKMLKGEKVEAYIPVALKVIAK”: “not soluble”.
With “MRNICFVACMLFCLASASGKTVKNHPFVSIADSILDNVLNLYQTEDGLLTETYPVNPDQKITYLAGGAQQNGTLKASFLWPYSGMMSGCVAMYQATGDKKYKTILEKRILPGLEQYWDGERLPACYQSYPVKYGQHGRYYDDNIWIALDYCDYYRLTKKADYLKKAIALYEYIYSGWSDELGGGIFWCEQQKEAKHTCSNAPSTVLGVKLYRLTKDKKYLNKAKETYAWTRKHLCDPDDFLYWDNINLKGKVSKDKYAYNSGQMIQAGVLLYEETGDKDYLRDAQKTAAGTDAFFRSKADKKDPSVKVHKDMSWFNVILFRGFKALEKIDHNPTYVRAMAENALHAWRNYRDANGLLGRDWSGHNEEPYKWLLDNACLIELFAEIEKLEHHHHHH” the entry was “not soluble”.
As for “MRNIDFSPLYRHAIGFDRLFNLVENSANKPSQQNGYPPYNIEQKDENNYRITMAVAGFSEDALTISQNEHMLIVSGDITSSEIKPTYVYQGIAERNFERKFQLADYVTVSAASMENGLLHIDLVREVPEAVQARKIAINK”, the “soluble on expression in E. coli” value is “not soluble”.
Turning to “MRNKILSDGAKELSYEIREIVKKADLINKNGQSIVFENIGDPIQKNNVVPQWIRETISNLTLDNKSYSYSPSKGILKTRQFLAELNNKKAGAQITADDILFFNGLGDAIAKVYQFISRSSRVIGPSPAYSTHSSAEAAHASQDPITYKLDPNNHWYPDLDDLYNKVKYNPNIIGILIINPDNPTGMVYPLETLKRIVEIAREFNLFLLSDEIYLNITYNGARAYSLAEVIEDVPGIAMKGISKEFPWPGSRCGWMEYYNRGKDQDFDKFCSALDNAKMIEVCSTTLPQLAIPVIMSDPRYLPYREELNSKIGKRSKIIAGILGQIPELMFNETYGAFYNTIVFKDGVLNDKQTLPIENAANKALVEKWISEPNVDLDKRFVYYLLAAKGICVVPISSFCSDLKGFRVTLLEENEELLEQTFTSIRDAIRLYLKS”, the “soluble on expression in E. coli” value is given as “not soluble”.
With “MRNVDFSPLYRNAIGFDRLLNLMEANTAKNTSGGYPPYNIEQKDEHNYRITMAVAGFSEDQLDLTQNENMLIVKGERKAEEGKNYVYQGIAERDFERKFQLADYVKVTGASMENGLLHIDLVREIPEAMQPRKIAIGGNNLLESN” the entry was “not soluble”; with “MRPQNTNGDFYVDTTCIDCDTCRWMTPEVFHRVDEMSAVYHQPTNETERLAALQALLSCPTSSIGTVEKLEHHHHHH”, “not soluble”.
Consider “MRPVVHVVGGGPGDPELLTVKGARLLGEARFVLYTGSLFPEGALRELAPKAALLDSKGMTLEEIVLALAEEARKGGGVVRLHSGDPGLYGTLLEEKEALEALGVGVEVVPGVTAAFALAARAGLSLTAPGVAQAVAFTRLGVRTPVPEGQDPKSLARKGLTLAVYLSGMHPRRLSRELLEAGLPGDTPVLYGHKVAQPGEEVGLTDLKGLAHLPARDTTVYLVGEALRAKGVRSLLYDPSFKHRYRR”, for which the “soluble on expression in E. coli” value was “soluble”.
As to “MRRCPLCHSTQTHLLLQDKKRCFYICQTCWLTFADANSHLPPAAEKQRYGRSRIASKQRHLSQFILPLLTQIQQQQNGSLTGLNFGRVLDQTSLETIESAGHTFKQYDPFFAPDHETLKQEYDFICCYRVFEHFQYPIKEWSLLTRLLKPGGWLAISTPLLIDLEGFAKWHYKNNLTHVSFYQRQTFEYLASNSDFELLFAAKDLVLMQKTSLEHHHHHH”, the “soluble on expression in E. coli” value is “soluble”.
With “MRRFKQQLAGRPAAAEIPLKRWLGVASHRCPAGPKRRRHDVMTCPSTQLRLAPITTGLVRRNPRILLSGPHQPTLVRYLEGWPKRWNGSRTFLIQFAQDGKDLARFPSDAFDFAVVQAPEAEDLDLVVRQLIRVARQGLITRRILR” the entry was “not soluble”; with “MRRFTAFVLGLCLSLPVLAEQVQRFGDLDVHYNVFNSSFLQPNVASAVGLVRSKAQGVINVVPMEKGKPVEAAVTGSAKDLTGKVIPLEFRRVSEEGAIYNLAQFPISQRETLVFTIKVEAKGEPAQTFSFNKEIFPDE”, “not soluble”.
Regarding “MRRLVLLLALCFSCSFAQYGLYGSGYNGYGGYGSGYGTGYGMGYGMGYPMNPYMNQVYGYGSNPMMSGGGGMYGAGGCMDLSPQCSVWASTGQCSTNPMMMRQTCAMSCGTCSTGVGALGSMGSYNPFGGYGGMGYPQAGLLDPLAQFIGRSIYETGILRQPTPSSSSKSIGILTKAKSEQLPSR”, the “soluble on expression in E. coli” value is “not soluble”.
With “MRRMVDHDALHRRWLGALVGARGGAAQPDPAPYGENLLRRWSEPQRRYHTVEHLAAVLDRVDLLAEYADDPDVVRLAAWFHDAVYFPDRSENEERSARLAERALPEAGVSGARTAEVARLVRLTVTHDPADDDRDGRVLCDADLAILAAPPKTYAAYAAAVREEYAFVPDDSFRAGRAAVLRQLLDLPRLFRTPYGEREWEERARENLREELARLDDRGTSGAAQLEHHHHHH” the entry was “not soluble”; with “MRRPPIVRCLFFLNDTIVLELEKTRVISERSNEEVIVVIRKTVKGTDGREYTFVAKEGTFEKLTGLGTTIRGHIPGTDSPFYGILEDGEEGLRAWIMTFRVVNRVPIDSETEEELVRLFLPLVERRRIDRSILLYVE”, “not soluble”.
With “MRRQAEAYKAQLAAMVESSDDAIIVKDLNAIITSWNAGAERIFGYQASEITGSSILALIPPERHEEEKGIMSLVKSGNRVDHFETMWWGKGKKPIDVSVTTSAVKDSDGNIVGISQIARDLEHHHHHH” the entry was “not soluble”; with “MRRRWYNNGGFQTLRMLEESSSEVTSSSALGLPPAMVMSPESLASPEYGGLELWGYDDGITYSMAQSLGTCTMEQQQPQPQQQPQQTQPLPSMPLPMPPTTPKSENESMSSGREELSPASSVNGCSTDGEARRQKKGPAPRQQEELCLVCGDRASGYHYNALTCEGCKGFFRRSVTKNAVYICKFGHACEMDMYMRRKCQECRLKKCLAVGMRPECVVPENQCAMKRKEKKAQREKDKLPVSTTTVDDHMPPIMQCDPPPPEAARIHEVVPRFLNEKLMEQNRLKNVPPLTANQKSLIARLVWYQEGYEQPSEEDLKRVTQTWQSDEDDEDSDMPFRQITEMTILTVQLIVEFAKGLPGFAKISQSDQITLLKACSSEVMMLRVARRYDAATDSVLFANNQAYTRDNYRKAGMAYVIEDLLHFCRCMYSMMMDNVHYALLTAIVIFSDRPGLEQPLLVEEIQRYYLNTLRVYILNQNSASPRCAVIFGKILGILTEIRTLGMQNSNMCISLKLKNRKLPPFLEEIWDVADVATTATPVAAEAPAPLAPAPPARPPATV”, “soluble”.
